Test results from article PMC7755911 (2020).
Changes are numbered by the printed parent chain.

Assays:
[1] = biological target: T1, Biotinylated SARS-CoV-2 S protein RBD with a C-terminal AviTag (SARS-CoV-2, UniProt P0DTC2 319-541); experiment: BLI
[2] = biological target: T1, Biotinylated SARS-CoV-2 S protein RBD …; experiment: BLI; remark: listed apart in the source

B1: NIH-CoVnb-103 (VHH)
VHH: DVQLQESGGGLVQPGGSLRLSCAASGLTLDYYTIGWFRQAPGKEREGVSCISSSDDSTYYADSVKGRFTISRDNAKNTVYLQMNSLKPEDTAVYYCATAPGTYYKGSYYPMCHYYGMDYWGKGTQVTVSS
- koff [1]: 0.00286 s⁻¹
- Kd [2]: 9.43 nM

B2: NIH-CoVnb-113 (VHH)
VHH: DVQLQESGGGLVQPGGSLRLSCAASGLTLDYYAIGWFRQAPGKEREGVSCISSSDGSTYYADSVKGRFTTSRDNAKNTVYLQMNSLKPEDTAVYYCAAVPSTYYSGTYYYTCHPGGMDYWGKGTLVTVSS
- koff [1]: 0.000804 s⁻¹
- Kd [2]: 8.19 nM

B3: NIH-CoVnb-108 (VHH)
VHH: B2 VHH with L27F, S53N, D55G, T107S, L125Q
- koff [1]: 0.00109 s⁻¹
- Kd [2]: 26.6 nM

B4: NIH-CoVnb-109 (VHH)
VHH: B2 VHH with P14S, L27F, S52T, S53N, A98S, V99F, T107S, L125Q
- koff [1]: 0.00188 s⁻¹
- Kd [2]: 58.5 nM
